# The Human Domainome abundance scans (Beltran et al. 2025)
# ± gives the uncertainty stated by the source.
# B1: RanBP-type and C3HC4-type zinc finger-containing protein 1, residues 369 to 411; numbered along this chain, Q9BYM8 (parent)
# chain: YHCKTPDCKGWCFFEDDVNEFTCPVCFHVNCLLCKAIHEQMNC
# B2: Tripartite motif-containing protein 44, residues 174 to 218; numbered along this chain, Q96DX7 (parent)
# chain: VAKRKCPDHGLDLSTYCQEDRQLICVLCPVIGAHQGHQLSTLDEA
# Variants of: B1
# Assay: abundance fitness (aPCA) (normalised: wild type 0, dead -1); higher = more abundant; growth selection in yeast, the domain comes from the species named
# Conditions: Homo sapiens
row,Variant,abundance fitness
1,YHCKTPDCKGWCFFEDDVNEFTCPVYFHVNCLLCKAIHEQMNC,-0.77 ± 0.48
2,YHCKTPDCKGWCFFEDDVNEFTCPVLFHVNCLLCKAIHEQMNC,-0.792 ± 0.086
3,YHCKTPDCKGWCFFEDDVNEFTCPVCFHVNCLLCKAIAEQMNC,-0.689 ± 0.064
4,YHCKTPDCKGKCFFEDDVNEFTCPVCFHVNCLLCKAIHEQMNC,0.023 ± 0.05
5,YHCKTPDCKGWCFFEDDVNEFTCPVCFHVNCLLCKAIHENMNC,0.036 ± 0.093
6,YHCKTPDCKGWCFFEDDVNEFTCPVCFHVNCLLFKAIHEQMNC,-0.654 ± 0.11
7,YHCKTPDCKGWCFFEDDVNERTCPVCFHVNCLLCKAIHEQMNC,-0.359 ± 0.04
8,YHCKTPDCKGWCFFEDDVNEFTCRVCFHVNCLLCKAIHEQMNC,-0.39 ± 0.047
9,YHCKTPDCKGWCFFEDDVNKFTCPVCFHVNCLLCKAIHEQMNC,-0.202 ± 0.063
10,YHCKTPDCKGWCFFEDDVNEFTCPVCFHVNCLLCKLIHEQMNC,-0.534 ± 0.053
11,YHCKTPDCKGWCFFEDDVNEFTCPVCFHVNCLLRKAIHEQMNC,-0.683 ± 0.05
12,YHCKTPDCKGWCFFEDDVNEFTCPVCFHVNCLLCEAIHEQMNC,-0.026 ± 0.057
13,YHCKTPDLKGWCFFEDDVNEFTCPVCFHVNCLLCKAIHEQMNC,-0.846 ± 0.14
14,YHCKTPDCKGWCFFEDDVNEFTCPECFHVNCLLCKAIHEQMNC,-0.138 ± 0.066
15,YHKKTPDCKGWCFFEDDVNEFTCPVCFHVNCLLCKAIHEQMNC,-0.771 ± 0.071
16,YHCKTPDCKGWCFFEDDVNEFTCPVCFHVNCLPCKAIHEQMNC,0.084 ± 0.058
17,YHCETPDCKGWCFFEDDVNEFTCPVCFHVNCLLCKAIHEQMNC,-0.359 ± 0.064
18,YHCKTPDCKGWCFFEDDVNEFTCPVCFHVNFLLCKAIHEQMNC,-0.648 ± 0.35
19,YHCKTPDCKGWCFFEDDVNEFTCPVSFHVNCLLCKAIHEQMNC,-0.804 ± 0.14
20,YHCKTPDCKGWCFFEDDVNEFTCPVCFHVNCLNCKAIHEQMNC,-0.116 ± 0.1
21,YHCKTPCCKGWCFFEDDVNEFTCPVCFHVNCLLCKAIHEQMNC,-0.656 ± 0.42
22,YHCKTPDCKGWCFFEDDVNEFTCPVCFHVNCLLNKAIHEQMNC,-0.536 ± 0.24
23,YHCKTPDCKGWCFFEDDVNEFTCPVCFHVNCLLCKAIHECMNC,-0.139 ± 0.064
24,YHCKTPDCKGWCFFEDDVNEFTCPVCFHVNCLLCKAIHEPMNC,0.005 ± 0.049
25,YHCKTPDCKGWCFFELDVNEFTCPVCFHVNCLLCKAIHEQMNC,-0.166 ± 0.054
26,YKCKTPDCKGWCFFEDDVNEFTCPVCFHVNCLLCKAIHEQMNC,0.095 ± 0.062

# Variants of: B2
# Assay: as above
# Conditions: Homo sapiens
row,Variant,abundance fitness
1,AAKRKCPDHGLDLSTYCQEDRQLICVLCPVIGAHQGHQLSTLDEA,-0.13 ± 0.034
2,CAKRKCPDHGLDLSTYCQEDRQLICVLCPVIGAHQGHQLSTLDEA,-0.029 ± 0.06
3,DAKRKCPDHGLDLSTYCQEDRQLICVLCPVIGAHQGHQLSTLDEA,-0.112 ± 0.041
4,EAKRKCPDHGLDLSTYCQEDRQLICVLCPVIGAHQGHQLSTLDEA,-0.049 ± 0.038
5,FAKRKCPDHGLDLSTYCQEDRQLICVLCPVIGAHQGHQLSTLDEA,-0.197 ± 0.06
6,GAKRKCPDHGLDLSTYCQEDRQLICVLCPVIGAHQGHQLSTLDEA,-0.107 ± 0.029
7,HAKRKCPDHGLDLSTYCQEDRQLICVLCPVIGAHQGHQLSTLDEA,-0.275 ± 0.085
8,IAKRKCPDHGLDLSTYCQEDRQLICVLCPVIGAHQGHQLSTLDEA,0.036 ± 0.035
9,KAKRKCPDHGLDLSTYCQEDRQLICVLCPVIGAHQGHQLSTLDEA,-0.005 ± 0.041
10,LAKRKCPDHGLDLSTYCQEDRQLICVLCPVIGAHQGHQLSTLDEA,-0.196 ± 0.038
11,MAKRKCPDHGLDLSTYCQEDRQLICVLCPVIGAHQGHQLSTLDEA,-0.032 ± 0.056
12,NAKRKCPDHGLDLSTYCQEDRQLICVLCPVIGAHQGHQLSTLDEA,-0.097 ± 0.047
13,PAKRKCPDHGLDLSTYCQEDRQLICVLCPVIGAHQGHQLSTLDEA,-0.11 ± 0.22
14,QAKRKCPDHGLDLSTYCQEDRQLICVLCPVIGAHQGHQLSTLDEA,-0.159 ± 0.16
15,RAKRKCPDHGLDLSTYCQEDRQLICVLCPVIGAHQGHQLSTLDEA,-0.39 ± 0.057
16,SAKRKCPDHGLDLSTYCQEDRQLICVLCPVIGAHQGHQLSTLDEA,-0.027 ± 0.061

row,Variant,abundance fitness
1,WAKRKCPDHGLDLSTYCQEDRQLICVLCPVIGAHQGHQLSTLDEA,-0.231 ± 0.051
2,YAKRKCPDHGLDLSTYCQEDRQLICVLCPVIGAHQGHQLSTLDEA,-0.226 ± 0.055
3,VCKRKCPDHGLDLSTYCQEDRQLICVLCPVIGAHQGHQLSTLDEA,0.04 ± 0.041
4,VDKRKCPDHGLDLSTYCQEDRQLICVLCPVIGAHQGHQLSTLDEA,0.053 ± 0.03
5,VEKRKCPDHGLDLSTYCQEDRQLICVLCPVIGAHQGHQLSTLDEA,0.087 ± 0.031
6,VFKRKCPDHGLDLSTYCQEDRQLICVLCPVIGAHQGHQLSTLDEA,0.009 ± 0.065
7,VGKRKCPDHGLDLSTYCQEDRQLICVLCPVIGAHQGHQLSTLDEA,-0.04 ± 0.027
8,VHKRKCPDHGLDLSTYCQEDRQLICVLCPVIGAHQGHQLSTLDEA,0.03 ± 0.044
9,VIKRKCPDHGLDLSTYCQEDRQLICVLCPVIGAHQGHQLSTLDEA,0.041 ± 0.039
10,VLKRKCPDHGLDLSTYCQEDRQLICVLCPVIGAHQGHQLSTLDEA,-0.031 ± 0.032
11,VMKRKCPDHGLDLSTYCQEDRQLICVLCPVIGAHQGHQLSTLDEA,-0.009 ± 0.041
12,VNKRKCPDHGLDLSTYCQEDRQLICVLCPVIGAHQGHQLSTLDEA,0.096 ± 0.062
13,VPKRKCPDHGLDLSTYCQEDRQLICVLCPVIGAHQGHQLSTLDEA,-0.088 ± 0.04
14,VRKRKCPDHGLDLSTYCQEDRQLICVLCPVIGAHQGHQLSTLDEA,-0.12 ± 0.029
15,VSKRKCPDHGLDLSTYCQEDRQLICVLCPVIGAHQGHQLSTLDEA,0.045 ± 0.033
